System: T1, MKI-EGFP fusion protein
T1 sequence: FPLKRHDKVDDLSK

| Substance | phosphorylation of acetyl-CoA carboxylase (ACC) by AMPK in rat hippocampal neurons, pACC (Ser79) antibody | phosphorylation of endogenous tau at the 12E8 sites in rat hippocampal neurons, Western blot | phosphorylation of transfected HA-tagged human tau at the 12E8 sites in rat hippocampal neurons, immunostaining |
| --- | --- | --- | --- |
| AMP-activated kinase (AMPK) | MKI-EGFP did not affect the phosphorylation of acetyl-CoA carboxylase (ACC) by AMP-activated kinase (AMPK) | – | – |
| MARK4 (PAR-1/MARK kinases) acting on tau in rat hippocampal neurons | – | expression of an MKI-GFP fusion protein in rat hippocampal neurons effectively attenuated MARK4-mediated phosphorylation of both endogenous tau (FIG. 3A) and transfected human tau at the 12E8 sites (FIG. 3B) | expression of an MKI-GFP fusion protein in rat hippocampal neurons effectively attenuated MARK4-mediated phosphorylation of both endogenous tau (FIG. 3A) and transfected human tau at the 12E8 sites (FIG. 3B) |
